One molecule from PMC6733264 (ACS chemical biology, 2019) can be followed below.

Ends that are not written are not given here.

The assay deals with kinase domain of BRAF^WT (human, UniProt P15056 457-717). The experiment in a line: other fluorescence titration.
Sequence of kinase domain of BRAF^WT (P15056 whole entry, looked up, the tested form may be a part): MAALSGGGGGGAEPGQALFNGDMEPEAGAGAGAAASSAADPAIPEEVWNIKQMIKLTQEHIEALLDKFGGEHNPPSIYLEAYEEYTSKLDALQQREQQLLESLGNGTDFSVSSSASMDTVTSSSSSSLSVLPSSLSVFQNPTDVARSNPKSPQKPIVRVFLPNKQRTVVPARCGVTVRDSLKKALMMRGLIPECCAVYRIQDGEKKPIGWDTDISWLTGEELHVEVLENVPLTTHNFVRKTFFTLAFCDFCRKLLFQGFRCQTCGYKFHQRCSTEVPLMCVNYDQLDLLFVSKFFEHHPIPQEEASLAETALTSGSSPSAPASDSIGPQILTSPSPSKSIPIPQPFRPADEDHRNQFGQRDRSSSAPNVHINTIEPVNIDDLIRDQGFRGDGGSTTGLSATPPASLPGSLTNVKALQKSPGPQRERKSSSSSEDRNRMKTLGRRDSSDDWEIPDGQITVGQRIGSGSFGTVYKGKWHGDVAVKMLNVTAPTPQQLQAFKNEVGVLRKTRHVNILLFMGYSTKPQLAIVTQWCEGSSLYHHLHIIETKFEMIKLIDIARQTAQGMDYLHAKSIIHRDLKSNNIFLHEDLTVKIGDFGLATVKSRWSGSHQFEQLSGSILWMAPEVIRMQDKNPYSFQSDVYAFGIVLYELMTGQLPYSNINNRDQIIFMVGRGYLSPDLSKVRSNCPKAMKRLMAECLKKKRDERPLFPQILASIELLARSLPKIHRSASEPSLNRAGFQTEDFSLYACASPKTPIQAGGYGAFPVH

In general, Kd refers to the free concentration of one partner at which half of the binding sites on the other are occupied at equilibrium, for simple one-to-one binding. Read a high Kd as a looser complex. For TRHVNILLFM (also: Cy3 label, end not given here) [Braftide-Cy3], binding was characterised by a dissociation constant (Kd) of 6.69 µM.
